Residue numbers refer to the chain shown, from its start.
Assays:
Assay in all cases: EMSA
[1] = target: T1, His-PRH R188A,R189A (human, UniProt Q03014 7-270, R188A;R189A)
T1 sequence: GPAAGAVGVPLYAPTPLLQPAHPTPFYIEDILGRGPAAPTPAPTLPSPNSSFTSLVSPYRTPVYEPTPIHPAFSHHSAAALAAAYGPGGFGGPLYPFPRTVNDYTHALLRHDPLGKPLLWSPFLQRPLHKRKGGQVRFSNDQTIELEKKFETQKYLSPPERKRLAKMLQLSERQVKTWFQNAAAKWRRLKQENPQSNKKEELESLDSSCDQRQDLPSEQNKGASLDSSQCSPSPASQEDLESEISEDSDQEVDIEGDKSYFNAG

[2] = target: T2, His-PRH N187A (human, UniProt Q03014 7-270, N187A)
T2 sequence: T1 sequence with N181A, A182R, A183R

[3] = target: T3, His-PRH F32E (human, UniProt Q03014 7-270, F32E)
T3 sequence: T1 sequence with F26E, A182R, A183R

[4] = target: T4, His-PRH (wild type) (human, UniProt Q03014 7-270)
T4 sequence: T1 sequence with A182R, A183R

B1: PRH-binding site oligonucleotide (dsDNA)
DNA 1: GCTTCTGGGAAGCAATTAAAAAATGGCTCGAGCT
DNA 2: CGAGCCATTTTTTAATTGCTTCCCAGA
binding result [1]: no binding | binding result [2]: no binding | binding result [3]: binds | binding result [4]: binds
